Target: sCD146蛋白 (CD146胞外区蛋白, Sino Biological 10115-H08H-20) (human) (UniProt P43121)
Assay: BLI (Octet Red96), against parental AA98

Chain of UniProt P43121 (P43121 24-559): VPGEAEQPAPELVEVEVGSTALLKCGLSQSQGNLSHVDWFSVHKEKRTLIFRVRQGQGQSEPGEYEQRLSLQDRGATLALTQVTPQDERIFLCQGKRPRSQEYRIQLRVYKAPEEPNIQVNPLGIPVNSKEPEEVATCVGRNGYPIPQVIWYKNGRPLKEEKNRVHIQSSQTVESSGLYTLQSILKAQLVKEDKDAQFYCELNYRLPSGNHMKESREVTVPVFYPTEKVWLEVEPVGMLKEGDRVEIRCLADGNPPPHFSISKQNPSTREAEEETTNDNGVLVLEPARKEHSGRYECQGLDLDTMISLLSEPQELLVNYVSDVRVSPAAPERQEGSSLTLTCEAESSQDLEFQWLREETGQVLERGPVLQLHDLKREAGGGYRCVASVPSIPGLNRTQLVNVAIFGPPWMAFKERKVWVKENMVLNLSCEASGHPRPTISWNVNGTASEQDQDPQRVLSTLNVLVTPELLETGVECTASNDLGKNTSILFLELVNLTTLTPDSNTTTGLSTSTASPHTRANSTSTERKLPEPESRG

fold increase of affinity against AA98: 10 fold
Substance: H13-112抗体 (AA98 variant, heavy chain I28K and light chain L51Y) (antibody)

From CN113512118A
